The supplement of paper PMC11246515
± gives the standard deviation of the averaged measurements.

Experiment: total protein half-life in vivo (active degradation + dilution); higher = more stable protein
[1] = E. coli NCM3722 delta-clpP delta-lon delta-hslV, growth: N-lim chemostat, doubling time 6 h
[2] = E. coli NCM3722 delta-clpP, growth: N-lim chemostat, doubling time 6 h
[3] = E. coli NCM3722 delta-hslV, growth: N-lim chemostat, doubling time 6 h
[4] = E. coli NCM3722 delta-smpB, growth: N-lim chemostat, doubling time 6 h
[5] = wild type E. coli NCM3722, growth: C-lim chemostat, doubling time 3 h
[6] = wild type E. coli NCM3722, growth: C-lim chemostat, doubling time 6 h
[7] = wild type E. coli NCM3722, growth: C-lim chemostat, doubling time 12 h
[8] = wild type E. coli NCM3722, growth: P-lim chemostat, doubling time 6 h
[9] = wild type E. coli NCM3722, growth: P-lim chemostat, doubling time 12 h
[10] = E. coli NCM3722 delta-lon, growth: N-lim chemostat, doubling time 6 h
[11] = wild type E. coli NCM3722, growth: N-lim chemostat, doubling time 6 h
[12] = wild type E. coli NCM3722, growth: N-lim chemostat, doubling time 12 h

Sequence	total protein half-life in vivo [1]	total protein half-life in vivo [2]	total protein half-life in vivo [3]	total protein half-life in vivo [4]	total protein half-life in vivo [5]	total protein half-life in vivo [6]	total protein half-life in vivo [7]	total protein half-life in vivo [8]	total protein half-life in vivo [9]	total protein half-life in vivo [10]	total protein half-life in vivo [11]	total protein half-life in vivo [12]
MSLPMLQVALDNQTMDSAYETTRLIAEEVDIIEVGTILCVGEGVRAVRDLKALYPHKIVLADAKIADAGKILSRMCFEANADWVTVICCADINTAKGALDVAKEFNGDVQIELTGYWTWEQAQQWRDAGIGQVVYHRSRDAQAAGVAWGEADITAIKRLSDMGFKVTVTGGLALEDLPLFKGIPIHVFIAGRSIRDAASPVEAARQFKRSIAELWG	5.41 h	2.49 h	2.68 h	4.15 ± 2.2 h	2.29 ± 0.076 h	5.11 ± 1.5 h	5.84 ± 1.4 h	2.69 h	3.39 h	–	–	–
MISVTLSQLTDILNGELQGADITLDAVTTDTRKLTPGCLFVALKGERFDAHDFADQAKAGGAGALLVSRPLDIDLPQLIVKDTRLAFGELAAWVRQQVPARVVALTGSSGKTSVKEMTAAILSQCGNTLYTAGNLNNDIGVPMTLLRLTPEYDYAVIELGANHQGEIAWTVSLTRPEAALVNNLAAAHLEGFGSLAGVAKAKGEIFSGLPENGIAIMNADNNDWLNWQSVIGSRKVWRFSPNAANSDFTATNIHVTSHGTEFTLQTPTGSVDVLLPLPGRHNIANALAAAALSMSVGATLDAIKAGLANLKAVPGRLFPIQLAENQLLLDDSYNANVGSMTAAVQVLAEMPGYRVLVVGDMAELGAESEACHVQVGEAAKAAGIDRVLSVGKQSHAISTASGVGEHFADKTALITRLKLLIAEQQVITILVKGSRSAAMEEVVRALQENGTC	4.74 ± 0.18 h	4.41 ± 0.27 h	5.24 ± 0.92 h	4.68 ± 0.057 h	3.37 ± 0.67 h	6.24 ± 1.3 h	9.83 ± 0.28 h	5.79 ± 0.27 h	10.2 ± 1.7 h	4.44 ± 0.34 h	4.48 ± 0.31 h	7.03 ± 0.19 h
MTHDNKLQVEAIKRGTVIDHIPAQIGFKLLSLFKLTETDQRITIGLNLPSGEMGRKDLIKIENTFLSEDQVDQLALYAPQATVNRIDNYEVVGKSRPSLPERIDNVLVCPNSNCISHAEPVSSSFAVRKRANDIALKCKYCEKEFSHNVVLAN [P0A7F3]	5.57 ± 0.82 h	4.6 ± 0.65 h	5.27 ± 1.8 h	5.09 ± 0.11 h	3.33 ± 0.51 h	5.19 ± 0.14 h	9.106 ± 0.024 h	5.64 ± 0.66 h	12.2 ± 1 h	4.92 ± 0.13 h	4.14 ± 0.12 h	7.28 ± 0.48 h
MSILTRWLLIPPVNARLIGRYRDYRRHGASAFSATLGCFWMILAWIFIPLEHPRWQRIRAEHKNLYPHINASRPRPLDPVRYLIQTCWLLIGASRKETPKPRRRAFSGLQNIRGRYHQWMNELPERVSHKTQHLDEKKELGHLSAGARRLILGIIVTFSLILALICVTQPFNPLAQFIFLMLLWGVALIVRRMPGRFSALMLIVLSLTVSCRYIWWRYTSTLNWDDPVSLVCGLILLFAETYAWIVLVLGYFQVVWPLNRQPVPLPKDMSLWPSVDIFVPTYNEDLNVVKNTIYASLGIDWPKDKLNIWILDDGGREEFRQFAQNVGVKYIARTTHEHAKAGNINNALKYAKGEFVSIFDCDHVPTRSFLQMTMGWFLKEKQLAMMQTPHHFFSPDPFERNLGRFRKTPNEGTLFYGLVQDGNDMWDATFFCGSCAVIRRKPLDEIGGIAVETVTEDAHTSLRLHRRGYTSAYMRIPQAAGLATESLSAHIGQRIRWARGMVQIFRLDNPLTGKGLKFAQRLCYVNAMFHFLSGIPRLIFLTAPLAFLLLHAYIIYAPALMIALFVLPHMIHASLTNSKIQGKYRHSFWSEIYETVLAWYIAPPTLVALINPHKGKFNVTAKGGLVEEEYVDWVISRPYIFLVLLNLVGVAVGIWRYFYGPPTEMLTVVVSMVWVFYNLIVLGGAVAVSVESKQVRRSHRVEMTMPAAIAREDGHLFSCTVQDFSDGGLGIKINGQAQILEGQKVNLLLKRGQQEYVFPTQVARVMGNEVGLKLMPLTTQQHIDFVQCTFARADTWALWQDSYPEDKPLESLLDILKLGFRGYRHLAEFAPSSVKGIFRVLTSLVSWVVSFIPRRPERSETAQPSDQALAQQ	3.59 h	3.59 ± 0.068 h	3.23 ± 0.15 h	3.25 ± 0.049 h	2.31 ± 0.24 h	3.01 ± 0.81 h	4.36 h	3.59 ± 0.75 h	6.3 ± 0.43 h	–	–	8.41 h
MALLQISEPGLSAAPHQRRLAAGIDLGTTNSLVATVRSGQAETLADHEGRHLLPSVVHYQQQGHSVGYDARTNAALDTANTISSVKRLMGRSLADIQQRYPHLPYQFQASENGLPMIETAAGLLNPVRVSADILKALAARATEALAGELDGVVITVPAYFDDAQRQGTKDAARLAGLHVLRLLNEPTAAAIAYGLDSGQEGVIAVYDLGGGTFDISILRLSRGVFEVLATGGDSALGGDDFDHLLADYIREQAGIPDRSDNRVQRELLDAAIAAKIALSDADSVTVNVAGWQGEISREQFNELIAPLVKRTLLACRRALKDAGVEADEVLEVVMVGGSTRVPLVRERVGEFFGRPPLTSIDPDKVVAIGAAIQADILVGNKPDSEMLLLDVIPLSLGLETMGGLVEKVIPRNTTIPVARAQDFTTFKDGQTAMSIHVMQGERELVQDCRSLARFALRGIPALPAGGAHIRVTFQVDADGLLSVTAMEKSTGVEASIQVKPSYGLTDSEIASMIKDSMSYAEQDVKARMLAEQKVEAARVLESLHGALAADAALLSAAERQVIDDAAAHLSEVAQGDDVDAIEQAIKNVDKQTQDFAARRMDQSVRRALKGHSVDEV [P0A6Z1]	5.04 ± 0.78 h	4.05 ± 0.14 h	2.65 ± 0.14 h	2.53 ± 0.028 h	2.7 ± 0.2 h	4.48 ± 0.47 h	7.07 ± 1.1 h	4.05 ± 0.31 h	6.96 ± 0.068 h	3.22 ± 0.24 h	2.857 ± 0.016 h	3.54 ± 0.12 h
